This note sets out measurements from patent US20160185871A1 (UNIVERSITY OF TOKYO, published 2016).

Assay [1] concerns the target T1, human TLR9 having Flag-His6 added on the C-terminal side (human, UniProt Q9NR96 26-1032).
T1 construct: whole, on cells; Expressed in Ba/F3 cells and stained after membrane permeabilisation; not shown: C-terminal Flag-His6 tag
T1 sequence (looked up): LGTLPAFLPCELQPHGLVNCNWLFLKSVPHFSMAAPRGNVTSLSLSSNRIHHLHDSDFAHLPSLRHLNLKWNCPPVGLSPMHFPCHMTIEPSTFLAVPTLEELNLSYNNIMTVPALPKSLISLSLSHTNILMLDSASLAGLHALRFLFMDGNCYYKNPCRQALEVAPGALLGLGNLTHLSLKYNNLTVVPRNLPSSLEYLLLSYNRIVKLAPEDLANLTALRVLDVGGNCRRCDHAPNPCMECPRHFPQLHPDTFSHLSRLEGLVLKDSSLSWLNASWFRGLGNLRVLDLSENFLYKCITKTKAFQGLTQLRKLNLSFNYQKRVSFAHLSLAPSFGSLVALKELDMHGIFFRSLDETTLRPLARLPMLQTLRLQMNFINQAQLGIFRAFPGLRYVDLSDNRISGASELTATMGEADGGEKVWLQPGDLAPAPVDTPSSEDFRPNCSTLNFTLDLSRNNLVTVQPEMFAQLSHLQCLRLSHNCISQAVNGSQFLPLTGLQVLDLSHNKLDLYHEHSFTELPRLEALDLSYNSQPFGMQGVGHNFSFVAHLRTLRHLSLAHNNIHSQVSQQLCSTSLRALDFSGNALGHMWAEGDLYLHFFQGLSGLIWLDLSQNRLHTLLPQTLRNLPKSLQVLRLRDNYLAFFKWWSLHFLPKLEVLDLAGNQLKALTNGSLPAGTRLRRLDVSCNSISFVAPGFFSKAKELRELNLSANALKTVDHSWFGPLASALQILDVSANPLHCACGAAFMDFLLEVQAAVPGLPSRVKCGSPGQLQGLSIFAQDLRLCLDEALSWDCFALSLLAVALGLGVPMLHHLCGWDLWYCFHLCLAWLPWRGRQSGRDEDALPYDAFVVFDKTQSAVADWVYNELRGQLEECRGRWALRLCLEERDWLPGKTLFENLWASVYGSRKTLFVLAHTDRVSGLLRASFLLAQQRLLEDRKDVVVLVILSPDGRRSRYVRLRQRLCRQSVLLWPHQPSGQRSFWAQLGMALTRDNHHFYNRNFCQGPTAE
Briefly: membrane permeability staining of Ba/F3 cells, flow cytometry. For orientation: In flow cytometry, cells or beads pass a laser one at a time.

Assay [2] has as its target T2, mouse TLR9 having Flag-His6 added on the C-terminal side (mouse, UniProt Q9EQU3 26-1032).
T2 construct: Expressed in Ba/F3 cells and stained after membrane permeabilisation; not shown: C-terminal Flag-His6 tag
T2 sequence: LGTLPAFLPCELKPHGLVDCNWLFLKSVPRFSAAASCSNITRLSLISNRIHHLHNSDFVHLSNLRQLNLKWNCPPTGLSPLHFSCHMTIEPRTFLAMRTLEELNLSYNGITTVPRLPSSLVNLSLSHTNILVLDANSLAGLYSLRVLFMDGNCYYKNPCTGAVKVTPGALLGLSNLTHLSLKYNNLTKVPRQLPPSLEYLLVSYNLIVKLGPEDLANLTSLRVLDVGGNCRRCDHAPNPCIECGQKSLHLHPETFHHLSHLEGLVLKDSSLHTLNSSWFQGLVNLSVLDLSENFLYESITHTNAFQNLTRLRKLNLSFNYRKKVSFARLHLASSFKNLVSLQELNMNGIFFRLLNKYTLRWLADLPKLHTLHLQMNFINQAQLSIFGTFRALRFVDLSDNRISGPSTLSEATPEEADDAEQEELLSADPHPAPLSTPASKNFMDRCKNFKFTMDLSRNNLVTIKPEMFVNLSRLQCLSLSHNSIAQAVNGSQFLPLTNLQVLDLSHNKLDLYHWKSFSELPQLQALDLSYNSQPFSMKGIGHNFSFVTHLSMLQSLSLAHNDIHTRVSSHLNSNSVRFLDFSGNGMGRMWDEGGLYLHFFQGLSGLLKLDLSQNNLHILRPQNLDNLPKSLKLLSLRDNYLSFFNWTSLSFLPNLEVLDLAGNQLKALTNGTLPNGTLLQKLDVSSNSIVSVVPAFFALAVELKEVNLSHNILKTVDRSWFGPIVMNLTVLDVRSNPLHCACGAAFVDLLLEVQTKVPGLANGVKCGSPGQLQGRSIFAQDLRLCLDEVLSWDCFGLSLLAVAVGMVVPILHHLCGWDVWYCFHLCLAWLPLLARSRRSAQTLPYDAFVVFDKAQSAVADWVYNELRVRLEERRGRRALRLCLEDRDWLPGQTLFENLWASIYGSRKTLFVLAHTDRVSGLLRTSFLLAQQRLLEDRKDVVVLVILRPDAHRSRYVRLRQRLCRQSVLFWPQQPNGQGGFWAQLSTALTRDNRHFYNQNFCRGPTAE
The assay is described as above.

Another assay addresses T3, mouse TLR9 (mouse, UniProt Q9EQU3 26-1032).
T3 construct: Stands for three settings: mouse TLR9 expressed in Ba/F3 cells (Ba/F3_mTLR9), alone or with Unc93B1, and endogenous TLR9 of spleen DC; also called mTLR9; endogenous TLR9
T3 sequence: T2 sequence
Briefly: flow cytometry on Ba/F3_mTLR9 cells, hybridoma selection. The source says: In order to establish a monoclonal antibody (mAb) against mouse TLR9, BALB/c TLR9^{-/-} mice were immunized with Ba/F3 cells(Ba/F3_mTLR9) that expressed mouse TLR9. Four days after final immunization, the spleen cells were fused with the SP2/0 myeloma cells. Hybridomas producing anti-mouse TLR9 mAb were selected by flow cytometry based on the staining of the Ba/F3 cells used for immunization. Three monoclonal antibodies J15A7 (IgG1/κ), C34A1 (IgG2a/κ), and B33A4 (IgG2a/κ) were established.

The target of a further assay is T4, TLR7N27-312 (mouse, UniProt P58681 27-312).
T4 construct: Expressed in a cell line; also called fragment of TLR7 from position 27 to position 312
T4 sequence: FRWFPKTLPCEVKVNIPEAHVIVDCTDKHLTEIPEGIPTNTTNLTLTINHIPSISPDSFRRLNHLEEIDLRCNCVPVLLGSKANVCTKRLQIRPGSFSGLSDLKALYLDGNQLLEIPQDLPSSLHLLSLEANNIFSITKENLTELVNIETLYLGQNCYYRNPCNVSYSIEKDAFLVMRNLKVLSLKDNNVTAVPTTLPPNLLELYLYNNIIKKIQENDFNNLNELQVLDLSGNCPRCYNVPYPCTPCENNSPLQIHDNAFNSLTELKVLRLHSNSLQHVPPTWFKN
The assay can be described thus: flow cytometry on a cell line expressing the fragment.

Assay [3] has as its target T5, C terminal region TLR7 (TLR7C; from 461-st glutamic acid to 837-th aspartic acid) (mouse, UniProt P58681 461-837).
T5 construct: not shown: N-terminal HA antigen added by the pDisplay vector; Cell-surface display (membrane anchor) part of the pDisplay vector; not described
T5 sequence: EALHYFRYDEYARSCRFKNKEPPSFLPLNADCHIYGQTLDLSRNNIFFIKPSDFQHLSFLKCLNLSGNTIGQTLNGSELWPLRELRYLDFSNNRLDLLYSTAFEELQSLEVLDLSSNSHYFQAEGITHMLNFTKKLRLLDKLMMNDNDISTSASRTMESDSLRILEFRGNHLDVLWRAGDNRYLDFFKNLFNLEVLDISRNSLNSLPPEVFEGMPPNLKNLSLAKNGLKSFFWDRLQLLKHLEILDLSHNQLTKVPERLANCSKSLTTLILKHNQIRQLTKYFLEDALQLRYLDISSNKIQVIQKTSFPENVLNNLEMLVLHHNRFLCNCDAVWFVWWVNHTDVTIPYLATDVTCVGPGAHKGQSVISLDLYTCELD
The assay can be described thus: flow cytometry on cells displaying the fragment.

B1: B33A4 antibody (antibody, V domains shown)
VH: EVLLQQSGPELVKPGASVKIPCKASGFTFTDYNLDWVKQSHEKSLEWIGDINPNTGGTIYNQNFKGKATLTVDRSSGTAYMELRSLTSEDTAVYFCARYFVSNYGYFDVWGAGTTVTVSS
VL: SIVMTQTPKFLLVSAGDRVTITCKASQSVSYDVAWYQQKPGQSPKLLIYYASNLYTGVPDRFTGSGYGTDFTFTISTVQAEDLAVYFCQQDSSSPYTFGGGTKLEIKR
notes: Mouse monoclonal antibody from a hybridoma, IgG2a/kappa; also called anti-TLR9N
Consider B1, for which the binding result in assay [1] is given as “no binding”.

B2: J15A7 antibody (antibody, mouse IgG1, kappa, V domains shown)
VH: QVQLQQPGAELVMPGASVKMSCKASGYTFTDYWMHWVKQRPGQGLEWIGVIDTSDSYTSYNQKFNRKATLTVDESSSTAYMQLSSLTSEDSAVYYCARDGPYYAMDYWGQGTSVTVSS
VL: QIVLTQSPAIMSASPGEKVTISCSASSGVSYMYWYQQKPGSSPKPWIYRTSNLASGVPARFSGSGSGTSYSLTISSMEAEDAATYYCHQYHSDPRTFGGGTKLEIKR
notes: Mouse monoclonal antibody from a hybridoma, IgG1/kappa; also called anti-TLR9 monoclonal antibody J15A7
As for B2, the binding result in assay [1] was “no binding”; in assay [2], “binds”; with mouse TLR9, “binds”.

B3: A94B10 antibody (antibody, V domains shown)
VH: EVKLVESGGGLVQPGGSLRLSCTTSGFTFSDFYMEWVRQPPGKRLEWIAASRNKRNDHTTEYSASVKGRFIVSRDTSQNILYLQMNALRAEDTAIYYCARDADYYGSSTWYFDVWGAGTTVTVSS
VL: DIVMTQSHKFMSTSVGDRVSITCKASQDVRTAVAWYQQKPGQSPKLLIYWASTRHTGVPDRFTGSGSGTDYTLTISSVQAEDLALYYCQQHYNTPPTFGGGTKLEIKR
notes: Mouse monoclonal antibody from a hybridoma, isotype IgG1; Chains were determined from full-length cDNA (5'-RACE); also called anti-mouse TLR7 antibody A94B10; anti-TLR7 monoclonal antibody
Consider B3, for which the binding result (in the assay with TLR7N27-312; in assay [3]) was “no binding” throughout.

B4: C34A1 antibody (antibody, mouse IgG2a, kappa, V domains shown)
VH: EVQLVESGGDLVKPGGSLKLSCAASGFTFSSYAMSWVRQTPDNRLEWVATSSSVGSYAYYPDNVKGRFTISRDNAKNTLYLQMSSLKSEDTAMYYCARRDYDARYWYFDVWGAGTTVTVSS
VL: DIKMTQSPSSMYASLGERVTITCKASQDIKSYLSWYQLKPWKSPKTLIYYATTLADGVPSRFSGSGSGQDYSLTISSLESDDTATYYCLQHGESPYTFGGGTKLEIKR
notes: Mouse monoclonal antibody from a hybridoma, IgG2a/kappa
B4: the binding result in assay [1] was “no binding”; in assay [2], “binds”; with mouse TLR9, “binds”.
